Data from article PMC4315173 (The Biochemical journal, 2014).

B1: PDE4D3 (natural protein, UniProt P14270-1 1-672, looked up)
chain: MMHVNTFPFRRHSWICFDVDNGTSAGRSPLDPMTSPGSGLILQANFVHSQRRESFLYRSDSDYDLSPKSMSRNSSIASDIHGDDLIVTPFAQVLASLRTVRNNFAALTNLQDRAPSKRSPMCNQPSINKATITEEAYQKLASETLEELDWCLDQLETLQTRHSVSEMASNKFKRMLNRELTHLSEMSRSGNQVSEYISNTFLDKQHEVEIPSPTQKEKEKKKRPMSQISGVKKLMHSSSLTNSCIPRFGVKTEQEDVLAKELEDVNKWGLHVFRIAELSGNRPLTVIMHTIFQERDLLKTFKIPVDTLITYLMTLEDHYHADVAYHNNIHAADVVQSTHVLLSTPALEAVFTDLEILAAIFASAIHDVDHPGVSNQFLINTNSELALMYNDSSVLENHHLAVGFKLLQEENCDIFQNLTKKQRQSLRKMAIDIVLATDMSKHMNLLADLKTMVETKKVTSSGVLLLDNYSDRIQVLQNMVHCADLSNPTKPLQLYRQWTDRIMEEFFRQGDRERERGMEISPMCDKHNASVEKSQVGFIDYIVHPLWETWADLVHPDAQDILDTLEDNREWYQSTIPQSPSPAPDDQEDGRQGQTEKFQFELTLEEDGESDTEKDSGSQVEEDTSCSDSKTLCTQDSESTEIPLDEQVEEEAVAEEESQPQTGVADDCCPDT
B2: PDE4D5 (natural protein, rat, UniProt P14270-8 1-745, looked up)
chain: MAQQTTSPDTLTVPEVDNPHVPNPWLNEDLVKSLRENLLQHEKSKTARKSVSPKLSPVISPRNSPRLLRRMLLSSNIPKQRRFTVAHTCFDVDNGTSAGRSPLDPMTSPGSGLILQANFVHSQRRESFLYRSDSDYDLSPKSMSRNSSIASDIHGDDLIVTPFAQVLASLRTVRNNFAALTNLQDRAPSKRSPMCNQPSINKATITEEAYQKLASETLEELDWCLDQLETLQTRHSVSEMASNKFKRMLNRELTHLSEMSRSGNQVSEYISNTFLDKQHEVEIPSPTQKEKEKKKRPMSQISGVKKLMHSSSLTNSCIPRFGVKTEQEDVLAKELEDVNKWGLHVFRIAELSGNRPLTVIMHTIFQERDLLKTFKIPVDTLITYLMTLEDHYHADVAYHNNIHAADVVQSTHVLLSTPALEAVFTDLEILAAIFASAIHDVDHPGVSNQFLINTNSELALMYNDSSVLENHHLAVGFKLLQEENCDIFQNLTKKQRQSLRKMAIDIVLATDMSKHMNLLADLKTMVETKKVTSSGVLLLDNYSDRIQVLQNMVHCADLSNPTKPLQLYRQWTDRIMEEFFRQGDRERERGMEISPMCDKHNASVEKSQVGFIDYIVHPLWETWADLVHPDAQDILDTLEDNREWYQSTIPQSPSPAPDDQEDGRQGQTEKFQFELTLEEDGESDTEKDSGSQVEEDTSCSDSKTLCTQDSESTEIPLDEQVEEEAVAEEESQPQTGVADDCCPDT
B3: PDE4A4 (natural protein, human, UniProt P27815-1 1-886, looked up)
chain: MEPPTVPSERSLSLSLPGPREGQATLKPPPQHLWRQPRTPIRIQQRGYSDSAERAERERQPHRPIERADAMDTSDRPGLRTTRMSWPSSFHGTGTGSGGAGGGSSRRFEAENGPTPSPGRSPLDSQASPGLVLHAGAATSQRRESFLYRSDSDYDMSPKTMSRNSSVTSEAHAEDLIVTPFAQVLASLRSVRSNFSLLTNVPVPSNKRSPLGGPTPVCKATLSEETCQQLARETLEELDWCLEQLETMQTYRSVSEMASHKFKRMLNRELTHLSEMSRSGNQVSEYISTTFLDKQNEVEIPSPTMKEREKQQAPRPRPSQPPPPPVPHLQPMSQITGLKKLMHSNSLNNSNIPRFGVKTDQEELLAQELENLNKWGLNIFCVSDYAGGRSLTCIMYMIFQERDLLKKFRIPVDTMVTYMLTLEDHYHADVAYHNSLHAADVLQSTHVLLATPALDAVFTDLEILAALFAAAIHDVDHPGVSNQFLINTNSELALMYNDESVLENHHLAVGFKLLQEDNCDIFQNLSKRQRQSLRKMVIDMVLATDMSKHMTLLADLKTMVETKKVTSSGVLLLDNYSDRIQVLRNMVHCADLSNPTKPLELYRQWTDRIMAEFFQQGDRERERGMEISPMCDKHTASVEKSQVGFIDYIVHPLWETWADLVHPDAQEILDTLEDNRDWYYSAIRQSPSPPPEEESRGPGHPPLPDKFQFELTLEEEEEEEISMAQIPCTAQEALTAQGLSGVEEALDATIAWEASPAQESLEVMAQEASLEAELEAVYLTQQAQSTGSAPVAPDEFSSREEFVVAVSHSSPSALALQSPLLPAWRTLSVSEHAPGLPGLPSTAAEVEAQREHQAAKRACSACAGTFGEDTSALPAPGGGGSGGDPT
B4: PDE4D4 (natural protein, rat, UniProt P14270-5 1-803, looked up)
chain: MEAEGSSVPARAGSHEGSDSSGGAALKAPKHLWRHEQHHQYPLRQPQFRLLHPHHHLPPPPPPSPQPQLQPPPPPPLPPPPPPPGATRGRYASSGASRVRHRGYSDTERYLYCRAMDRTSYAVETGHRPGLKKSRMSWPSSFQGLRRFDVDNGTSAGRSPLDPMTSPGSGLILQANFVHSQRRESFLYRSDSDYDLSPKSMSRNSSIASDIHGDDLIVTPFAQVLASLRTVRNNFAALTNLQDRAPSKRSPMCNQPSINKATITEEAYQKLASETLEELDWCLDQLETLQTRHSVSEMASNKFKRMLNRELTHLSEMSRSGNQVSEYISNTFLDKQHEVEIPSPTQKEKEKKKRPMSQISGVKKLMHSSSLTNSCIPRFGVKTEQEDVLAKELEDVNKWGLHVFRIAELSGNRPLTVIMHTIFQERDLLKTFKIPVDTLITYLMTLEDHYHADVAYHNNIHAADVVQSTHVLLSTPALEAVFTDLEILAAIFASAIHDVDHPGVSNQFLINTNSELALMYNDSSVLENHHLAVGFKLLQEENCDIFQNLTKKQRQSLRKMAIDIVLATDMSKHMNLLADLKTMVETKKVTSSGVLLLDNYSDRIQVLQNMVHCADLSNPTKPLQLYRQWTDRIMEEFFRQGDRERERGMEISPMCDKHNASVEKSQVGFIDYIVHPLWETWADLVHPDAQDILDTLEDNREWYQSTIPQSPSPAPDDQEDGRQGQTEKFQFELTLEEDGESDTEKDSGSQVEEDTSCSDSKTLCTQDSESTEIPLDEQVEEEAVAEEESQPQTGVADDCCPDT

Key:
[1] = target: endogenous PDE4D (mouse brain) (mouse (endogenous in brain)) (UniProt Q01063); assay: co-IP
Sequence of endogenous PDE4D (mouse brain) (mouse (endogenous in brain)) (Q01063 whole entry): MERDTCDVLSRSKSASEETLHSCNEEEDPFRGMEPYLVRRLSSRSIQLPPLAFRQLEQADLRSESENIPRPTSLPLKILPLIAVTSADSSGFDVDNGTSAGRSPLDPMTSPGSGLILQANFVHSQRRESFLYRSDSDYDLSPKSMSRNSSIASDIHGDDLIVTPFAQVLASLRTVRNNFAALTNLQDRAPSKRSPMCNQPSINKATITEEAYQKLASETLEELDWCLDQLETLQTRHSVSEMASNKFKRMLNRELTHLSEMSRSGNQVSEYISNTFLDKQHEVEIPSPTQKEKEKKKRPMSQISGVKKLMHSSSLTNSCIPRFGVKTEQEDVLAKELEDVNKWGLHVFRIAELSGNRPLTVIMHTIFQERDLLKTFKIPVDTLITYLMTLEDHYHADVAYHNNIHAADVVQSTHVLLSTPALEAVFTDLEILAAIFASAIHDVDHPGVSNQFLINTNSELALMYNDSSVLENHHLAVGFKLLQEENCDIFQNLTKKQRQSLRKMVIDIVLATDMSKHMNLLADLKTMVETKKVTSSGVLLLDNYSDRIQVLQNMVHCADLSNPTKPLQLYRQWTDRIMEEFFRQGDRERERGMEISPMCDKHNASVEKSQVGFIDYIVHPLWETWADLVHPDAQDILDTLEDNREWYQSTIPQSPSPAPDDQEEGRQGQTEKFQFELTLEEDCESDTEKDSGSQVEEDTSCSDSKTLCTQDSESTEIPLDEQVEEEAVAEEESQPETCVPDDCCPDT

[2] = target: the molecule itself; assay: SEC + other: sucrose density gradient centrifugation

Row | Molecule | percent of the total PDE4A found in complex with PDE4D [1] | stoichiometry N [2]
1 | endogenous long PDE4A variants (mouse brain) (from UniProt O89084 1-844) (natural protein) | 2% | 
2 | B1 |  | 2
3 | B2 |  | 2
4 | B3 |  | 2
5 | B4 |  | 2
